Molecular target: His1 (position 1, -----HTASDA)
Assay: potentiometry
Settings: not stated (electrode with a thermo-compensating apparatus); not stated (no added salt; distilled water with about 1 mM HCl/NaOH); none (distilled water acidified with 1 mM HCl, titrated with 1 mM NaOH); free peptide, 0.27 mM, 5 mL, in water

## HTASDAAAAAALTAANAAAAAAASMA
  pKa: 6.0
